Measurements reported in article PMC4797271, “The quorum-sensing regulator ComA from Bacillus subtilis activates transcription using topologically distinct DNA motifs”.

T1: ComA (Bacillus subtilis, UniProt P14204 1-214)
T1 sequence: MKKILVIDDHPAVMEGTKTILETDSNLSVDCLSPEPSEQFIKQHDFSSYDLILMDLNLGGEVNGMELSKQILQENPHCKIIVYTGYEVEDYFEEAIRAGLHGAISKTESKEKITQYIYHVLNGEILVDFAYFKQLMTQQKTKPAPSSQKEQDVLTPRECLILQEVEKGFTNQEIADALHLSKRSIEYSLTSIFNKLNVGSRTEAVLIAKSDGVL

B1: PIR n6 (dsDNA)
DNA 1: ATGTTTAGTGGAAATGATTGCGGCATCTCCCGCAAAAAATATTGCTGTAAAT
DNA 2: ATTTACAGCAATATTTTTTGCGGGAGATGCCGCAATCATTTCCACTAAACAT
B2: PDR n10 (dsDNA)
DNA 1: AAACTGGAATCGAAACTTTGCGGCCATTACCATTTGCGGTGATAAAAACATTTTT
DNA 2: AAAAATGTTTTTATCACCGCAAATGGTAATGGCCGCAAAGTTTCGATTCCAGTTT
B3: PIR n1 (dsDNA)
DNA 1: ATGTTTAGTGGAAATGATTGCGGCCCGCAAAAAATATTGCTGTAAAT
DNA 2: ATTTACAGCAATATTTTTTGCGGGCCGCAATCATTTCCACTAAACAT
B4: PDR n7 (dsDNA)
DNA 1: AAACTGGAATCGAAACTTTGCGGCCATTACTTGCGGTGATAAAAACATTTTT
DNA 2: AAAAATGTTTTTATCACCGCAAGTAATGGCCGCAAAGTTTCGATTCCAGTTT
B5: PIR n3 (dsDNA)
DNA 1: ATGTTTAGTGGAAATGATTGCGGCATCCGCAAAAAATATTGCTGTAAAT
DNA 2: ATTTACAGCAATATTTTTTGCGGATGCCGCAATCATTTCCACTAAACAT
B6: PIR n2 (dsDNA)
DNA 1: ATGTTTAGTGGAAATGATTGCGGCACCGCAAAAAATATTGCTGTAAAT
DNA 2: ATTTACAGCAATATTTTTTGCGGTGCCGCAATCATTTCCACTAAACAT
B7: PDR n1 (dsDNA)
DNA 1: AAACTGGAATCGAAACTTTGCGGCTTGCGGTGATAAAAACATTTTT
DNA 2: AAAAATGTTTTTATCACCGCAAGCCGCAAAGTTTCGATTCCAGTTT
B8: PDR n15 (dsDNA)
DNA 1: AAACTGGAATCGAAACTTTGCGGCCATTACCATCTACTTTGCGGTGATAAAAACATTTTT
DNA 2: AAAAATGTTTTTATCACCGCAAAGTAGATGGTAATGGCCGCAAAGTTTCGATTCCAGTTT
B9: PDR n3 (dsDNA)
DNA 1: AAACTGGAATCGAAACTTTGCGGCCATTGCGGTGATAAAAACATTTTT
DNA 2: AAAAATGTTTTTATCACCGCAATGGCCGCAAAGTTTCGATTCCAGTTT
B10: PDR n2 (dsDNA)
DNA 1: AAACTGGAATCGAAACTTTGCGGCCTTGCGGTGATAAAAACATTTTT
DNA 2: AAAAATGTTTTTATCACCGCAAGGCCGCAAAGTTTCGATTCCAGTTT
B11: PIR n8 (dsDNA)
DNA 1: ATGTTTAGTGGAAATGATTGCGGCATCTCCACCGCAAAAAATATTGCTGTAAAT
DNA 2: ATTTACAGCAATATTTTTTGCGGTGGAGATGCCGCAATCATTTCCACTAAACAT
B12: PDR n9 (dsDNA)
DNA 1: AAACTGGAATCGAAACTTTGCGGCCATTACCATTGCGGTGATAAAAACATTTTT
DNA 2: AAAAATGTTTTTATCACCGCAATGGTAATGGCCGCAAAGTTTCGATTCCAGTTT
B13: PIR n10 (dsDNA)
DNA 1: ATGTTTAGTGGAAATGATTGCGGCATCTCCACACCGCAAAAAATATTGCTGTAAAT
DNA 2: ATTTACAGCAATATTTTTTGCGGTGTGGAGATGCCGCAATCATTTCCACTAAACAT
B14: PIR n14 (dsDNA)
DNA 1: ATGTTTAGTGGAAATGATTGCGGCATCTCCACATACCCCGCAAAAAATATTGCTGTAAAT
DNA 2: ATTTACAGCAATATTTTTTGCGGGGTATGTGGAGATGCCGCAATCATTTCCACTAAACAT

What follows are binders tested against T1, ComA (assay: EMSA; EMSA: 10 mM HEPES pH 7.6, 2 mM MgCl2, 0.1 mM EDTA, 200 mM KCl, 5 mM DTT, 10% glycerol; 10 ng DNA in 15 ul, 20 min, room temperature). Conditions: protein: recombinant; tags: N-terminal His6 (from expression primer); chain copies: 2; label: 5' biotin on strand 1; blunt.

Binding result, no binding:
B1
B2
B3
B4
B5
B6
B7
B8
B9
B10
B11
B12
B13
B14
